{"source": "paper PMC8584998", "about": "“Arabidopsis FHY3 and FAR1 Function in Age Gating of Leaf Senescence”", "binders": {"B1": {"name": "ORE1 EBS (dsDNA)", "DNA 1": "ATACTTTACAAGGTTCATGCATGCATAC", "DNA 2": "GTATGCATGCATGAACCTTGTAAAGTAT"}}, "target": "T1, MBP-EIN3N (UniProt O24606 141-352)", "T1 sequence": "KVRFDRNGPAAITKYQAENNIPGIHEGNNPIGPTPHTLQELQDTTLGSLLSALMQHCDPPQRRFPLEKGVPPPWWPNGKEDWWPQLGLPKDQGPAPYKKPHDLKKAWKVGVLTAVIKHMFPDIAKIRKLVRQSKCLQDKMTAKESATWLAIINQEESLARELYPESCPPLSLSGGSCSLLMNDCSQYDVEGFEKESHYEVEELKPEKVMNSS", "assay": "EMSA; LightShift Chemiluminescent EMSA kit (Pierce), 10 min at room temperature, 6% native polyacrylamide gel; buffer, salt and pH not stated", "details": "protein: recombinant; tags: MBP; chain copies: 2; label: biotin; blunt", "data": [{"binder": "B1", "values": [{"measurement": "binding result", "value": "binds"}]}]}
